From the supplement of paper PMC9876800

System: peptide library, one residue held at a place counted from the S/T acceptor
Test: relative phosphorylation of the sub-library (ratio to the mean residue at this position); higher = residue favoured
Conditions: human
How it was run: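 Relative sub-library phosphorylation, a ratio to the mean residue at that position, was obtained by phosphorimaging and densitometry of spots on streptavidin membranes. Before capture, purified recombinant kinases were incubated for 90 min under kinase-specific conditions with 50 μM biotinylated degenerate peptide sub-libraries and 50 μM ATP spiked with γ-32P-ATP. Each sub-library fixed one residue at one position around a central Ser/Thr.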

CDK13, construct: aa694-1039, sequence (Q14004 694-1039, looked up): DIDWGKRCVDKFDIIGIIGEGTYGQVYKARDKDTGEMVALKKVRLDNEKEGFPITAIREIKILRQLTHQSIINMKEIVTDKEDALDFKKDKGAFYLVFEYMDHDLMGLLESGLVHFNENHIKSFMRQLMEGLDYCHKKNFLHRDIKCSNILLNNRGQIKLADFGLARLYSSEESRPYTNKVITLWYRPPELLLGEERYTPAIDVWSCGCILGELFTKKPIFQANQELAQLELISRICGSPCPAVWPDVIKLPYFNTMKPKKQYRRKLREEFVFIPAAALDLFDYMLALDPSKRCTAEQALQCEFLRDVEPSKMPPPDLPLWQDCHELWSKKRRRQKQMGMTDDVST
CAMKK2, construct: Full length, sequence (Q96RR4 whole entry, looked up): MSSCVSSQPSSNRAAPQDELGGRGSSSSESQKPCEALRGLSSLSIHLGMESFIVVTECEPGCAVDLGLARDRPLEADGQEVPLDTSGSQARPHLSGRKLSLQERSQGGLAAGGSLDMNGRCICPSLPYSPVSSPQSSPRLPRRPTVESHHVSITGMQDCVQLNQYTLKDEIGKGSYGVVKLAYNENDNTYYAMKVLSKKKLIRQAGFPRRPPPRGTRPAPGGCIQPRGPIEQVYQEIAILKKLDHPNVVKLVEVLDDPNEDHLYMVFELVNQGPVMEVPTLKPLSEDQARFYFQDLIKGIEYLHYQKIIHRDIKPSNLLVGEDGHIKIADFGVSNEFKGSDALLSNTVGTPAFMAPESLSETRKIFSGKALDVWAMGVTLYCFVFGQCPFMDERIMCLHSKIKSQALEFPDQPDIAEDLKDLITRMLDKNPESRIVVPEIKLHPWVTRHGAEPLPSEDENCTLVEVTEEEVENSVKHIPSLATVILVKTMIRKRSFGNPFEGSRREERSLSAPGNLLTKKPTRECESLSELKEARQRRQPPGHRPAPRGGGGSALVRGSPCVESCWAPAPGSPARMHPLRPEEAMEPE

CDK13, construct: aa694-1039 (from UniProt Q14004)
relative phosphorylation
Conditions | at +1 | at +2 | at +3 | at +4 | at -1 | at -2 | at -3 | at -4 | at -5
A fixed | 0.344 | 0.946 | 0.818 | 0.867 | 1.13 | 1.18 | 1.03 | 1.07 | 1.13
D fixed | 0.22 | 0.631 | 0.449 | 1.07 | 0.485 | 0.477 | 0.742 | 0.927 | 0.951
E fixed | 0.222 | 0.569 | 0.42 | 0.973 | 0.492 | 0.515 | 0.76 | 0.983 | 0.817
F fixed | 0.319 | 1.03 | 0.579 | 0.816 | 0.876 | 0.712 | 0.85 | 1.17 | 1.23
G fixed | 0.908 | 1.27 | 0.797 | 1.33 | 1.45 | 1.77 | 2.11 | 1.16 | 0.982
H fixed | 0.301 | 1.17 | 1.71 | 1.44 | 0.893 | 0.831 | 0.889 | 1.02 | 1.1
I fixed | 0.293 | 0.835 | 0.822 | 0.746 | 0.382 | 0.933 | 0.995 | 0.868 | 0.933
K fixed | 0.307 | 1.31 | 0.993 | 0.893 | 1.12 | 0.542 | 0.581 | 0.846 | 0.837
L fixed | 0.348 | 0.845 | 0.558 | 0.743 | 0.845 | 1.03 | 0.922 | 0.953 | 0.923
M fixed | 0.336 | 1.11 | 0.506 | 0.824 | 1.64 | 1.31 | 0.965 | 1.01 | 0.855
N fixed | 0.305 | 1.02 | 0.739 | 1.01 | 0.968 | 0.685 | 0.696 | 0.889 | 0.784
P fixed | 11.6 | 0.82 | 1.41 | 0.98 | 1.02 | 1.71 | 1.44 | 1.15 | 1.17
Q fixed | 0.287 | 0.8 | 0.764 | 0.903 | 1.18 | 0.736 | 0.672 | 0.753 | 0.933
R fixed | 0.315 | 1.7 | 4.1 | 0.956 | 1.68 | 1.16 | 1.2 | 0.861 | 0.898
V fixed | 0.315 | 0.812 | 0.717 | 0.779 | 0.511 | 0.942 | 0.877 | 0.825 | 0.929
W fixed | 0.306 | 0.937 | 0.82 | 1.59 | 1.23 | 1.43 | 1.07 | 1.4 | 1.24
Y fixed | 0.306 | 1.2 | 0.801 | 1.09 | 1.09 | 1.03 | 1.2 | 1.11 | 1.27
pThr fixed | 0.386 | 0.581 | 0.553 | 1.13 | 0.349 | 0.479 | 0.922 | 0.831 | 1.02
pTyr fixed | 0.405 | 0.576 | 0.702 | 1.27 | 1.16 | 0.698 | 0.88 | 0.961 | 0.865

CAMKK2, construct: Full length (from UniProt Q96RR4)
relative phosphorylation
Conditions | at +1 | at +2 | at +3 | at +4 | at -1 | at -2 | at -3 | at -4 | at -5
A fixed | 1.16 | 0.999 | 0.931 | 0.783 | 1.27 | 0.476 | 1.17 | 0.993 | 1.31
D fixed | 0.612 | 1.03 | 1.09 | 1.14 | 1.17 | 0.349 | 0.289 | 0.949 | 1.02
E fixed | 0.647 | 0.701 | 0.995 | 0.774 | 1.24 | 0.313 | 0.317 | 0.905 | 0.843
F fixed | 0.787 | 0.602 | 0.861 | 1.12 | 0.671 | 1.91 | 1.44 | 0.939 | 0.93
G fixed | 0.848 | 1.24 | 1.36 | 1.09 | 0.731 | 0.434 | 0.846 | 1.11 | 1.29
H fixed | 0.46 | 1.21 | 0.888 | 1.1 | 0.934 | 0.748 | 1.23 | 1.15 | 1.09
I fixed | 1.27 | 0.734 | 0.702 | 0.589 | 0.46 | 0.558 | 0.672 | 0.481 | 0.529
K fixed | 1.03 | 1.04 | 0.971 | 1.18 | 1.6 | 0.629 | 0.567 | 0.887 | 1.02
L fixed | 1.1 | 0.786 | 0.783 | 0.953 | 0.974 | 2.57 | 0.981 | 0.762 | 0.561
M fixed | 1.92 | 1.14 | 0.834 | 0.979 | 1.2 | 2.46 | 1.65 | 1.04 | 0.887
N fixed | 1.02 | 1.4 | 1.22 | 0.991 | 1.15 | 0.594 | 0.66 | 0.95 | 0.917
P fixed | 0.328 | 1.26 | 1.61 | 1.64 | 0.268 | 0.363 | 1.48 | 0.931 | 1.29
Q fixed | 1.07 | 0.937 | 1.05 | 1.09 | 1.6 | 0.727 | 1.09 | 1.05 | 1.08
R fixed | 1.18 | 1.32 | 1.04 | 0.852 | 1.65 | 0.885 | 0.856 | 1.11 | 1.21
V fixed | 1.19 | 0.93 | 0.706 | 0.884 | 0.601 | 0.548 | 0.953 | 0.583 | 0.753
W fixed | 1.22 | 0.742 | 0.971 | 0.981 | 0.693 | 0.873 | 1.48 | 1.79 | 1.25
Y fixed | 1.18 | 0.927 | 0.988 | 0.861 | 0.786 | 2.56 | 1.32 | 1.37 | 1.02
pThr fixed | 0.769 | 0.87 | 1.03 | 1.14 | 0.432 | 0.493 | 0.711 | 0.711 | 0.884
pTyr fixed | 0.827 | 0.75 | 1.43 | 1.09 | 0.973 | 0.634 | 0.525 | 0.831 | 0.776
